# From publication PMC7954794, “Protein context shapes the specificity of SH3 domain-mediated interactions in vivo” (Nature Communications, 2021)
# B1: SDC25 (protein, UniProt P0CF34 1-1048, looked up)
# Putative truncated guanine …: MPITSSPDLFYLNDCDVVYWYDLTRLVCHYVNLTERDLLANEREKFLTSLDLLTAQITYVYMLFRNLRLVEDSFKKTLKKLIYTLSRFSINANIWFHSTLFEEREAIASQKDPERRSPLLQSILGTFQKFHFLLRLLHFLSNPNELTILPQLTPRFFKDSFNTISWNNPFLRKRLNQHMSHDLPRQMIKAVAGASGIVAENIDEIPASKQGTSCSSETSHHSPSAPFQRRRRGTIFSNVSGSSDESDTIWSKRKKPYPLNEETLSLVRARKKQLDGKLKQMIKSANEYLSNTANFSKMLNFEMNFKTYEEVSGTIPIIDILENLDLTIFLNLRELGDENRVFDEDVAIDDEDEEFLKHSLSSLSYILSDYFNMKQYFHDVVVKFIIVAQHLTLEDPFVFSPMQNDLPTGYYEPMKPSSLNLDNAKDKKNGSQNTDIQEEEDEYEPDPDSLILFHNLINQDSDFNDLKFFNLAHVFKKSCDDYFDVLKLAIEFVNQLILERENLLNYAARMMKNNITELLLRGEEGYGSYDGGETAEKSDTNAVYADSDTKDNDEWRDSQVKLPRYLQREYDSELIWGSNNRIKGGSKHALISYLTDNEKKDLFFDITFLITFRSIFTTTEFLSYLISQYNLDPPEDLCFEEYNEWVTKKLIPVKCRVVEIMTTFFKQYWFLGYDEPDLATLNLDYFAQVAIKENITGSVELLKEVNQKFKHGNIQEATAPMKTLDQQICQDHYSGTLYSTTESILAVDPVLFATQLTILEHEIYCEITIFDCLQKIWKNKYTKSYGASPGLNEFISFANKLTNFISYSVVKEADKSKRAKLLSHFIFIAEYCRKFNNFSSMTAIISALYSSPIYRLEKTWQAVIPQTRDLLQSLNKLMDPKKNFINYRNELKSLHSAPCVPFFGVYLSDLTFTDSGNPDYLVLEHGLKGVHDEKKYINFNKRSRLVDILQEIIYFKKTHYDFTKDRTVIECISNSLENIPHIEKQYQLSLIIEPKPRKKVVPNSNSNNKSQEKSRDDQTDEGKTSTKKDRFPKFQLHKTKKKAPKVSK
# B2: PIN3 (protein, UniProt Q06449 2-215, looked up)
# [PSI+] inducibility protein 3: SASLINRSLTNIRTELDFLKGSNVISNDVYDQINKSLPAKWDPANAPRNASPASLEYVEALYQFDPQQDGDLGLKPGDKVQLLEKLSPEWYKGSCNGRTGIFPANYVKPAFSGSNGPSNLPPPPQYKAQELQQIPTQNSAASSYQQQPFPPPSTNYYQQPQQQPQQAPPPQQQQQQQQHQSSHSHLKSFGSKLGNAAIFGAGASIGSDIVNNIF
# System: growth of yeast strains under 51 stress conditions
# Assay: Growth assays in 51 stress conditions (Fig. 1E-F, S2D, S5B)
# Type: cell-based, Saccharomyces cerevisiae
# Parameters: key to Growth (Fig. S2D) / growth of ABP1 SH3-swapped strains in stress condition: log2 colony size, average of median per strain (growth score)
# Details: FigS2D
# Procedure, shortened: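 Yeast WT, SH3-deleted, KO, SH3-swapped and SH3-shuffled strains pinned in 1536 format, 12 replicates each; pregrown on YPD 2 days at 30 °C, then replicated onto 51 media at 37 °C and imaged every 2 h. Growth score = mean of per-plate median log2 colony size at 74 h.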
molecule,measurement,setting,value
B1,growth of ABP1 SH3-swapped strains in stress condition,Bathophenanthroline.0.1uM,10.8364
same,growth of ABP1 SH3-swapped strains in stress condition,Bathophenanthroline.10uM,10.6904
same,growth of ABP1 SH3-swapped strains in stress condition,Bathophenanthroline.1uM,10.7994
same,growth of ABP1 SH3-swapped strains in stress condition,CaCl2.100mM,10.8248
same,growth of ABP1 SH3-swapped strains in stress condition,CaCl2.250mM,10.7599
same,growth of ABP1 SH3-swapped strains in stress condition,CaCl2.500mM,10.2626
same,growth of ABP1 SH3-swapped strains in stress condition,Caffein.10mM,10.0769
same,growth of ABP1 SH3-swapped strains in stress condition,Caffein.2mM,11.0485
same,growth of ABP1 SH3-swapped strains in stress condition,CdCl2.100uM,9.5
same,growth of ABP1 SH3-swapped strains in stress condition,CdCl2.10uM,10.8639
same,growth of ABP1 SH3-swapped strains in stress condition,CdCl2.50uM,9.958
same,growth of ABP1 SH3-swapped strains in stress condition,CuSO4.1mM,10.5113
same,growth of ABP1 SH3-swapped strains in stress condition,CuSO4.5mM,8.27
same,growth of ABP1 SH3-swapped strains in stress condition,Cycloheximide.0.05.uM,11.0819
same,growth of ABP1 SH3-swapped strains in stress condition,Cycloheximide.0.2.uM,10.7047
same,growth of ABP1 SH3-swapped strains in stress condition,Cycloheximide.0.5.uM,10.178
same,growth of ABP1 SH3-swapped strains in stress condition,DMSO.2.,11.0639
same,growth of ABP1 SH3-swapped strains in stress condition,DMSO.6.,9.8939
same,growth of ABP1 SH3-swapped strains in stress condition,DMSO.8.,9.304
same,growth of ABP1 SH3-swapped strains in stress condition,Ethanol.2.,10.7995
same,growth of ABP1 SH3-swapped strains in stress condition,Ethanol.6.,10.2862
same,growth of ABP1 SH3-swapped strains in stress condition,Ethanol.8.,10.1201
same,growth of ABP1 SH3-swapped strains in stress condition,Galactose.2.,10.8278
same,growth of ABP1 SH3-swapped strains in stress condition,Glycerol.2.,9.649
same,growth of ABP1 SH3-swapped strains in stress condition,Hydroxyurea.25mM,10.7663
same,growth of ABP1 SH3-swapped strains in stress condition,Hygromycin.190uM,10.9932
same,growth of ABP1 SH3-swapped strains in stress condition,Hygromycin.19uM,11.0621
same,growth of ABP1 SH3-swapped strains in stress condition,Hygromycin.95uM,11.0036
same,growth of ABP1 SH3-swapped strains in stress condition,MMS.0.004.,10.9622
same,growth of ABP1 SH3-swapped strains in stress condition,MMS.0.02.,10.7008
same,growth of ABP1 SH3-swapped strains in stress condition,MMS.0.04.,9.99
same,growth of ABP1 SH3-swapped strains in stress condition,Menadione.100uM,10.5981
same,growth of ABP1 SH3-swapped strains in stress condition,Menadione.200uM,10.4339
same,growth of ABP1 SH3-swapped strains in stress condition,Menadione.50uM,10.8229
same,growth of ABP1 SH3-swapped strains in stress condition,NaCl.0.25M,10.7913
same,growth of ABP1 SH3-swapped strains in stress condition,NaCl.1M,9.689
same,growth of ABP1 SH3-swapped strains in stress condition,Nitroquinoline.10uM,10.6447
same,growth of ABP1 SH3-swapped strains in stress condition,Nitroquinoline.50uM,10.5332
same,growth of ABP1 SH3-swapped strains in stress condition,Nystatin.0.01uM,11.0104
same,growth of ABP1 SH3-swapped strains in stress condition,Nystatin.0.1uM,10.9861
same,growth of ABP1 SH3-swapped strains in stress condition,Raffinose.2.,11.0244
same,growth of ABP1 SH3-swapped strains in stress condition,Rapamycin.10nM,9.868
same,growth of ABP1 SH3-swapped strains in stress condition,Rapamycin.50nM,9.322
same,growth of ABP1 SH3-swapped strains in stress condition,SC.pH3,10.4118
same,growth of ABP1 SH3-swapped strains in stress condition,SC.pH6,11.0555
same,growth of ABP1 SH3-swapped strains in stress condition,SDS.0.01.,10.9877
same,growth of ABP1 SH3-swapped strains in stress condition,SDS.0.02.,11.0022
same,growth of ABP1 SH3-swapped strains in stress condition,SDS.0.05.,10.9318
same,growth of ABP1 SH3-swapped strains in stress condition,Sorbitol.10mM,10.9817
same,growth of ABP1 SH3-swapped strains in stress condition,Sorbitol.1mM,11.0284
same,growth of ABP1 SH3-swapped strains in stress condition,Sorbitol.5mM,10.9056
B2,growth of ABP1 SH3-swapped strains in stress condition,Bathophenanthroline.0.1uM,10.8166
same,growth of ABP1 SH3-swapped strains in stress condition,Bathophenanthroline.10uM,10.6603
same,growth of ABP1 SH3-swapped strains in stress condition,Bathophenanthroline.1uM,10.7601
same,growth of ABP1 SH3-swapped strains in stress condition,CaCl2.100mM,10.8086
same,growth of ABP1 SH3-swapped strains in stress condition,CaCl2.250mM,10.7002
same,growth of ABP1 SH3-swapped strains in stress condition,CaCl2.500mM,10.193
same,growth of ABP1 SH3-swapped strains in stress condition,Caffein.10mM,10.1104
same,growth of ABP1 SH3-swapped strains in stress condition,Caffein.2mM,10.9501
same,growth of ABP1 SH3-swapped strains in stress condition,CdCl2.100uM,9.413
same,growth of ABP1 SH3-swapped strains in stress condition,CdCl2.10uM,10.8515
same,growth of ABP1 SH3-swapped strains in stress condition,CdCl2.50uM,9.821
same,growth of ABP1 SH3-swapped strains in stress condition,CuSO4.1mM,10.439
same,growth of ABP1 SH3-swapped strains in stress condition,CuSO4.5mM,7.85
same,growth of ABP1 SH3-swapped strains in stress condition,Cycloheximide.0.05.uM,11.0946
same,growth of ABP1 SH3-swapped strains in stress condition,Cycloheximide.0.2.uM,10.6691
same,growth of ABP1 SH3-swapped strains in stress condition,Cycloheximide.0.5.uM,10.0558
same,growth of ABP1 SH3-swapped strains in stress condition,DMSO.2.,10.999
same,growth of ABP1 SH3-swapped strains in stress condition,DMSO.6.,9.863
same,growth of ABP1 SH3-swapped strains in stress condition,DMSO.8.,9.083
same,growth of ABP1 SH3-swapped strains in stress condition,Ethanol.2.,10.7656
same,growth of ABP1 SH3-swapped strains in stress condition,Ethanol.6.,10.3279
same,growth of ABP1 SH3-swapped strains in stress condition,Ethanol.8.,10.22
same,growth of ABP1 SH3-swapped strains in stress condition,Galactose.2.,10.8019
same,growth of ABP1 SH3-swapped strains in stress condition,Glycerol.2.,9.823
same,growth of ABP1 SH3-swapped strains in stress condition,Hydroxyurea.25mM,10.7882
same,growth of ABP1 SH3-swapped strains in stress condition,Hygromycin.190uM,10.9875
same,growth of ABP1 SH3-swapped strains in stress condition,Hygromycin.19uM,10.9831
same,growth of ABP1 SH3-swapped strains in stress condition,Hygromycin.95uM,10.9742
same,growth of ABP1 SH3-swapped strains in stress condition,MMS.0.004.,10.989
same,growth of ABP1 SH3-swapped strains in stress condition,MMS.0.02.,10.7926
same,growth of ABP1 SH3-swapped strains in stress condition,MMS.0.04.,10.0504
same,growth of ABP1 SH3-swapped strains in stress condition,Menadione.100uM,10.5651
same,growth of ABP1 SH3-swapped strains in stress condition,Menadione.200uM,10.4599
same,growth of ABP1 SH3-swapped strains in stress condition,Menadione.50uM,10.8547
same,growth of ABP1 SH3-swapped strains in stress condition,NaCl.0.25M,10.7663
same,growth of ABP1 SH3-swapped strains in stress condition,NaCl.1M,9.587
same,growth of ABP1 SH3-swapped strains in stress condition,Nitroquinoline.10uM,10.765
same,growth of ABP1 SH3-swapped strains in stress condition,Nitroquinoline.50uM,10.634
same,growth of ABP1 SH3-swapped strains in stress condition,Nystatin.0.01uM,10.9089
same,growth of ABP1 SH3-swapped strains in stress condition,Nystatin.0.1uM,10.9679
same,growth of ABP1 SH3-swapped strains in stress condition,Raffinose.2.,10.9939
same,growth of ABP1 SH3-swapped strains in stress condition,Rapamycin.10nM,9.886
same,growth of ABP1 SH3-swapped strains in stress condition,Rapamycin.50nM,9.402
same,growth of ABP1 SH3-swapped strains in stress condition,SC.pH3,10.4061
same,growth of ABP1 SH3-swapped strains in stress condition,SC.pH6,11.0349
same,growth of ABP1 SH3-swapped strains in stress condition,SDS.0.01.,10.9539
same,growth of ABP1 SH3-swapped strains in stress condition,SDS.0.02.,10.9685
same,growth of ABP1 SH3-swapped strains in stress condition,SDS.0.05.,10.8165
same,growth of ABP1 SH3-swapped strains in stress condition,Sorbitol.10mM,10.9792
same,growth of ABP1 SH3-swapped strains in stress condition,Sorbitol.1mM,10.9728
same,growth of ABP1 SH3-swapped strains in stress condition,Sorbitol.5mM,10.9245
